Values quoted from earlier work as cited in PMC10653114.

How the values were obtained:
[1] = target: Glu41 (UniProt position 41, VFQNRESVLPT); conditions: 295 K; Conc. 0.10 (unit not given; Na+/Cl–)
[2] = target: Glu14 (UniProt position 14, SALPPEATDTL); conditions: 295 K; Conc. 0.10 (unit not given; Na+/Cl–)
[3] = target: Glu78 (UniProt position 78, GEATQEDYYTG); conditions: 295 K; Conc. 0.10 (unit not given; Na+/Cl–)
[4] = target: Asp84 (UniProt position 84, DYYTGDHYATF); conditions: 295 K; Conc. 0.10 (unit not given; Na+/Cl–)
[5] = target: Asp79 (UniProt position 79, EATQEDYYTGD); conditions: 295 K; Conc. 0.10 (unit not given; Na+/Cl–)
[6] = target: Asp93 (UniProt position 93, TFSLIDQTC--); conditions: 295 K; Conc. 0.10 (unit not given; Na+/Cl–)
[7] = target: Glu74 (UniProt position 74, RIITGEATQED); conditions: 295 K; Conc. 0.10 (unit not given; Na+/Cl–)
[8] = target: Glu54 (UniProt position 54, YGYYHEYTVIT); conditions: 295 K; Conc. 0.10 (unit not given; Na+/Cl–)
[9] = target: Asp33 (UniProt position 33, FPYSQDGVVFQ); conditions: 295 K; Conc. 0.10 (unit not given; Na+/Cl–)
[10] = target: Asp17 (UniProt position 17, PPEATDTLNLI); conditions: 295 K; Conc. 0.10 (unit not given; Na+/Cl–)
[11] = target: Asp25 (UniProt position 25, NLIASDGPFPY); conditions: 295 K; Conc. 0.10 (unit not given; Na+/Cl–)
[12] = target: Glu29 (UniProt position 76, YITKSEAQALG); conditions: 298 K; Conc. 0.0 (unit not given; Na+/Cl–)
[13] = target: Asp86 (UniProt position 133, GFRNSDRILYS); conditions: 298 K; Conc. 0.0 (unit not given; Na+/Cl–)
[14] = target: Asp8 (UniProt position 55, VINTFDGVADY); conditions: 298 K; Conc. 0.0 (unit not given; Na+/Cl–)
[15] = target: Asp101 (UniProt position 148, IYKTTDHYQTF); conditions: 298 K; Conc. 0.0 (unit not given; Na+/Cl–)
[16] = target: Asp44 (UniProt position 91, KGNLADVAPGK); conditions: 298 K; Conc. 0.0 (unit not given; Na+/Cl–)
[17] = target: Glu60 (UniProt position 107, IFSNREGKLPG); conditions: 298 K; Conc. 0.0 (unit not given; Na+/Cl–)
[18] = target: Asp54 (UniProt position 101, KSIGGDIFSNR); conditions: 298 K; Conc. 0.0 (unit not given; Na+/Cl–)
[19] = target: Asp22 (UniProt position 69, YHKLPDNYITK); conditions: 298 K; Conc. 0.0 (unit not given; Na+/Cl–)
[20] = target: Glu73 (UniProt position 120, GRTWREADINY); conditions: 298 K; Conc. 0.0 (unit not given; Na+/Cl–)
[21] = target: Asp93 (UniProt position 140, ILYSSDWLIYK); conditions: 298 K; Conc. 0.0 (unit not given; Na+/Cl–)
[22] = target: Asp75 (UniProt position 122, TWREADINYTS); conditions: 298 K; Conc. 0.0 (unit not given; Na+/Cl–)
[23] = target: Asp12 (UniProt position 59, FDGVADYLQTY); conditions: 298 K; Conc. 0.0 (unit not given; Na+/Cl–)
[24] = target: Lys97 (UniProt position 115, VNCAKKIVSDG); experiment: NMR (per the title of cited ref 36); conditions: 300 K; Conc. 0.10 (unit not given; Na+/Cl–)
[25] = target: Lys33 (UniProt position 51, WVCAAKFESNF); experiment: NMR (per the title of cited ref 36); conditions: 300 K; Conc. 0.10 (unit not given; Na+/Cl–)
[26] = target: Glu35 (UniProt position 53, CAAKFESNFNT); experiment: NMR (per the title of cited ref 36); conditions: 300 K; Conc. 0.10 (unit not given; Na+/Cl–)
[27] = target: Lys116 (UniProt position 134, WRNRCKGTDVQ); experiment: NMR (per the title of cited ref 36); conditions: 300 K; Conc. 0.10 (unit not given; Na+/Cl–)
[28] = target: Asp66 (UniProt position 84, RWWCNDGRTPG); experiment: NMR (per the title of cited ref 36); conditions: 300 K; Conc. 0.10 (unit not given; Na+/Cl–)
[29] = target: Asp48 (UniProt position 66, TNRNTDGSTDY); experiment: NMR (per the title of cited ref 36); conditions: 300 K; Conc. 0.10 (unit not given; Na+/Cl–)
[30] = target: Lys13 (UniProt position 31, LAAAMKRHGLD); experiment: NMR (per the title of cited ref 36); conditions: 300 K; Conc. 0.10 (unit not given; Na+/Cl–)
[31] = target: Asp52 (UniProt position 70, TDGSTDYGILQ); experiment: NMR (per the title of cited ref 36); conditions: 300 K; Conc. 0.10 (unit not given; Na+/Cl–)
[32] = target: Asp87 (UniProt position 105, ALLSSDITASV); experiment: NMR (per the title of cited ref 36); conditions: 300 K; Conc. 0.10 (unit not given; Na+/Cl–)
[33] = target: Glu7 (UniProt position 25, VFGRCELAAAM); experiment: NMR (per the title of cited ref 36); conditions: 300 K; Conc. 0.10 (unit not given; Na+/Cl–)
[34] = target: Asp119 (UniProt position 137, RCKGTDVQAWI); experiment: NMR (per the title of cited ref 36); conditions: 300 K; Conc. 0.10 (unit not given; Na+/Cl–)
[35] = target: Lys96 (UniProt position 114, SVNCAKKIVSD); experiment: NMR (per the title of cited ref 36); conditions: 300 K; Conc. 0.10 (unit not given; Na+/Cl–)
[36] = target: Asp101 (UniProt position 119, KKIVSDGNGMN); experiment: NMR (per the title of cited ref 36); conditions: 300 K; Conc. 0.10 (unit not given; Na+/Cl–)
[37] = target: Asp18 (UniProt position 36, KRHGLDNYRGY); experiment: NMR (per the title of cited ref 36); conditions: 300 K; Conc. 0.10 (unit not given; Na+/Cl–)
[38] = target: Asp39 (UniProt position 413, PVDGWDLTFSF); conditions: 298 K; Conc. 0.10 (unit not given; K+/Cl–)

In the case of “Ribonuclease Sa (Streptomyces aureofaciens)”, the pKa [1] is given as 4.14 ± 0.07, the pKa [2] is given as 5.02 ± 0.07 and the pKa [3] is given as 3.13 ± 0.07. The pKa [4] was 3.01 ± 0.07, the pKa [5] was 7.37 ± 0.07 and the pKa [6] was 3.09 ± 0.07. The pKa [7] was 3.47 ± 0.07, the pKa [8] was 3.42 ± 0.07 and the pKa [9] was 2.39 ± 0.07. The pKa [10] was 3.72 ± 0.07 and the pKa [11] was 4.87 ± 0.07.

For Barnase (Bacillus amyloliquefaciens), the pKa [12] is given as 3.75 ± 0.05, the pKa [13] is given as 4.2 ± 0.1 and the pKa [14] is given as 3.1 ± 0.2. For the same substance, the pKa [15] was 2.0 ± 0.2, the pKa [16] was 3.6 ± 0.1 and the pKa [17] was 3.4 ± 0.1. The pKa [18] was 2.2 ± 0.3, the pKa [19] was 3.3 ± 0.1 and the pKa [20] was 2.1 ± 0.1. For the same substance, the pKa [21] was <2.0, the pKa [22] was 3.1 ± 0.2 and the pKa [23] was 3.6 ± 0.2.

For “Hen egg-white lysozyme (HEWL) (Gallus gallus)”, the pKa [24] is given as 10.30 ± 0.10, the pKa [25] is given as 10.60 ± 0.10 and the pKa [26] is given as 6.20 ± 0.10. The pKa [27] was 10.40 ± 0.10, the pKa [28] was 0.90 ± 0.5 and the pKa [29] was 1.60 ± 0.4. The pKa [30] was 10.50 ± 0.10, the pKa [31] was 3.68 ± 0.08 and the pKa [32] was 2.07 ± 0.15. The pKa [33] was 2.85 ± 0.25, the pKa [34] was 3.2 ± 0.09 and the pKa [35] was 10.80 ± 0.10. The pKa [36] was 4.09 ± 0.07 and the pKa [37] was 2.66 ± 0.08.

For “Highly charge-depleted protein (PDB 6QFS), T39D variant (Cellulomonas fimi (parent domain; not stated in the article); T39D (on the 6QFS charge-depleted background; background substitutions not stated))”, the pKa [38] is given as 5.

In the case of “Highly charge-depleted protein (PDB 6QFS), T39D/T66H variant (Cellulomonas fimi (parent domain; not stated in the article); T39D;T66H (on the 6QFS charge-depleted background; background substitutions not stated))”, the pKa [38] is listed as 4.07 ± 0.02.
